Drawing on patent publication US20140087995A1 (published 2014), this text covers IC50 for 7 molecules.

Numbered stars: 1 amine (or outer) side, 2 acyl side, 3 side chain; on linkers, the order of the positions; unused ones are H or OH. Bridge positions count the residues as written; N and C are the ends. Side chains are listed from the residue outwards. Ends that are not written are not given here. * marks the point of attachment. C20 diacid = O=C(O)CCCCCCCCCCCCCCCCCCC(=O)*; γGlu = O=C(O)[C@H](CCC(=O)[*:2])N[*:1]

Sequences and labels used below:
T1: human amylin receptor (Amylin 3(a) receptor: human calcitonin receptor co-expressed with RAMP-3) (human, UniProt P30988 25-474; O60896 24-148, limits assumed)
T1 construct: whole, on cells; Used as cell membranes prepared from the Amylin 3(a)/CRE-luc BHK cells (Assay V); the complex is called the human amylin receptor; also called hAmylin-R; hAmylinR
T1 sequence (looked up) 1: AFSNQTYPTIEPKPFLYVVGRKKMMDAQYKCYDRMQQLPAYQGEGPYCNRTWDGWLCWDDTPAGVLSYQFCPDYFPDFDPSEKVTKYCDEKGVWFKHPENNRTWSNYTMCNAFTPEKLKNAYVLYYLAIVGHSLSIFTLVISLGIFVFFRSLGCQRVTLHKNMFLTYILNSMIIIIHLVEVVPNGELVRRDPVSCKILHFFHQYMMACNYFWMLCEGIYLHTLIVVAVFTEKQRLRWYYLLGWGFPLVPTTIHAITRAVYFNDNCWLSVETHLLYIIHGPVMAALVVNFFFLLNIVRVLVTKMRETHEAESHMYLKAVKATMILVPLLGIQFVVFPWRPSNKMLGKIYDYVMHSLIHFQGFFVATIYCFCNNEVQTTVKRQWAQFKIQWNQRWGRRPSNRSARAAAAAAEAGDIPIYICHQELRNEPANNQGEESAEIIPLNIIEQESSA
T1 sequence (looked up) 2: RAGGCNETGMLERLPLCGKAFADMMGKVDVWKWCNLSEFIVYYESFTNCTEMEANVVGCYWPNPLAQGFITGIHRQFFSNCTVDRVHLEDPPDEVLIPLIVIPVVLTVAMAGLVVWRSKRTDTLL

B1: N^ε1-[(4S)-4-carboxy-4-[[(4S)-4-carboxy-4-(19-carboxynonadecanoylamino)butanoyl]amino]butanoyl]-[Glu14,Arg17,Pro21,Pro27,His34,Glu35]-h-amylin (peptide)
peptide: K([γGlu-γGlu-C20 diacid])CNTATCATQRLAEFLRHSSPNFGAIPSSTNVGHETY-NH2
modifications: disulfide 2-7; N-terminus assumed
SMILES: CC[C@H](C)[C@H](NC(=O)[C@H](C)NC(=O)CNC(=O)[C@H](Cc1ccccc1)NC(=O)[C@H](CC(N)=O)NC(=O)[C@@H]1CCCN1C(=O)[C@H](CO)NC(=O)[C@H](CO)NC(=O)[C@H](Cc1c[nH]cn1)NC(=O)[C@H](CCCNC(=N)N)NC(=O)[C@H](CC(C)C)NC(=O)[C@H](Cc1ccccc1)NC(=O)[C@H](CCC(=O)O)NC(=O)[C@H](C)NC(=O)[C@H](CC(C)C)NC(=O)[C@H](CCCNC(=N)N)NC(=O)[C@H](CCC(N)=O)NC(=O)[C@@H](NC(=O)[C@H](C)NC(=O)[C@@H]1CSSC[C@H](NC(=O)[C@@H](N)CCCCNC(=O)CC[C@H](NC(=O)CC[C@H](NC(=O)CCCCCCCCCCCCCCCCCCC(=O)O)C(=O)O)C(=O)O)C(=O)N[C@@H](CC(N)=O)C(=O)N[C@@H]([C@@H](C)O)C(=O)N[C@@H](C)C(=O)N[C@@H]([C@@H](C)O)C(=O)N1)[C@@H](C)O)C(=O)N1CCC[C@H]1C(=O)N[C@@H](CO)C(=O)N[C@@H](CO)C(=O)N[C@H](C(=O)N[C@@H](CC(N)=O)C(=O)N[C@H](C(=O)NCC(=O)N[C@@H](Cc1c[nH]cn1)C(=O)N[C@@H](CCC(=O)O)C(=O)N[C@H](C(=O)N[C@@H](Cc1ccc(O)cc1)C(N)=O)[C@@H](C)O)C(C)C)[C@@H](C)O
notes: modifications are with respect to human amylin
B2: N^ε1-[(4S)-4-carboxy-4-[[(4S)-4-carboxy-4-(19-carboxynonadecanoylamino)butanoyl]amino]butanoyl]-[Ser14,Arg17,Pro21,Pro27,Pro34,Glu35]-h-amylin (peptide)
peptide: K([γGlu-γGlu-C20 diacid])CNTATCATQRLASFLRHSSPNFGAIPSSTNVGPETY-NH2
modifications: disulfide 2-7; N-terminus assumed
SMILES: CC[C@H](C)[C@H](NC(=O)[C@H](C)NC(=O)CNC(=O)[C@H](Cc1ccccc1)NC(=O)[C@H](CC(N)=O)NC(=O)[C@@H]1CCCN1C(=O)[C@H](CO)NC(=O)[C@H](CO)NC(=O)[C@H](Cc1c[nH]cn1)NC(=O)[C@H](CCCNC(=N)N)NC(=O)[C@H](CC(C)C)NC(=O)[C@H](Cc1ccccc1)NC(=O)[C@H](CO)NC(=O)[C@H](C)NC(=O)[C@H](CC(C)C)NC(=O)[C@H](CCCNC(=N)N)NC(=O)[C@H](CCC(N)=O)NC(=O)[C@@H](NC(=O)[C@H](C)NC(=O)[C@@H]1CSSC[C@H](NC(=O)[C@@H](N)CCCCNC(=O)CC[C@H](NC(=O)CC[C@H](NC(=O)CCCCCCCCCCCCCCCCCCC(=O)O)C(=O)O)C(=O)O)C(=O)N[C@@H](CC(N)=O)C(=O)N[C@@H]([C@@H](C)O)C(=O)N[C@@H](C)C(=O)N[C@@H]([C@@H](C)O)C(=O)N1)[C@@H](C)O)C(=O)N1CCC[C@H]1C(=O)N[C@@H](CO)C(=O)N[C@@H](CO)C(=O)N[C@H](C(=O)N[C@@H](CC(N)=O)C(=O)N[C@H](C(=O)NCC(=O)N1CCC[C@H]1C(=O)N[C@@H](CCC(=O)O)C(=O)N[C@H](C(=O)N[C@@H](Cc1ccc(O)cc1)C(N)=O)[C@@H](C)O)C(C)C)[C@@H](C)O
notes: modifications are with respect to human amylin; also called compound 120
B3: N^ε1-[(4S)-4-carboxy-4-[[(4S)-4-carboxy-4-(19-carboxynonadecanoylamino)butanoyl]amino]butanoyl]-[Glu14,Arg17,Pro23,Pro34,Glu35]-h-amylin (peptide)
peptide: K([γGlu-γGlu-C20 diacid])CNTATCATQRLAEFLRHSSNNPGAILSSTNVGPETY-NH2
modifications: disulfide 2-7; N-terminus assumed
SMILES: CC[C@H](C)[C@H](NC(=O)[C@H](C)NC(=O)CNC(=O)[C@@H]1CCCN1C(=O)[C@H](CC(N)=O)NC(=O)[C@H](CC(N)=O)NC(=O)[C@H](CO)NC(=O)[C@H](CO)NC(=O)[C@H](Cc1c[nH]cn1)NC(=O)[C@H](CCCNC(=N)N)NC(=O)[C@H](CC(C)C)NC(=O)[C@H](Cc1ccccc1)NC(=O)[C@H](CCC(=O)O)NC(=O)[C@H](C)NC(=O)[C@H](CC(C)C)NC(=O)[C@H](CCCNC(=N)N)NC(=O)[C@H](CCC(N)=O)NC(=O)[C@@H](NC(=O)[C@H](C)NC(=O)[C@@H]1CSSC[C@H](NC(=O)[C@@H](N)CCCCNC(=O)CC[C@H](NC(=O)CC[C@H](NC(=O)CCCCCCCCCCCCCCCCCCC(=O)O)C(=O)O)C(=O)O)C(=O)N[C@@H](CC(N)=O)C(=O)N[C@@H]([C@@H](C)O)C(=O)N[C@@H](C)C(=O)N[C@@H]([C@@H](C)O)C(=O)N1)[C@@H](C)O)C(=O)N[C@@H](CC(C)C)C(=O)N[C@@H](CO)C(=O)N[C@@H](CO)C(=O)N[C@H](C(=O)N[C@@H](CC(N)=O)C(=O)N[C@H](C(=O)NCC(=O)N1CCC[C@H]1C(=O)N[C@@H](CCC(=O)O)C(=O)N[C@H](C(=O)N[C@@H](Cc1ccc(O)cc1)C(N)=O)[C@@H](C)O)C(C)C)[C@@H](C)O
notes: as for B1
B4: N^ε1-[(4S)-4-carboxy-4-[[(4S)-4-carboxy-4-(19-carboxynonadecanoylamino)butanoyl]amino]butanoyl]-[Glu14,Arg17,Pro21,Pro27,Pro34,Phe37]-h-amylin (peptide)
peptide: K([γGlu-γGlu-C20 diacid])CNTATCATQRLAEFLRHSSPNFGAIPSSTNVGPNTF-NH2
modifications: disulfide 2-7; N-terminus assumed
SMILES: CC[C@H](C)[C@H](NC(=O)[C@H](C)NC(=O)CNC(=O)[C@H](Cc1ccccc1)NC(=O)[C@H](CC(N)=O)NC(=O)[C@@H]1CCCN1C(=O)[C@H](CO)NC(=O)[C@H](CO)NC(=O)[C@H](Cc1c[nH]cn1)NC(=O)[C@H](CCCNC(=N)N)NC(=O)[C@H](CC(C)C)NC(=O)[C@H](Cc1ccccc1)NC(=O)[C@H](CCC(=O)O)NC(=O)[C@H](C)NC(=O)[C@H](CC(C)C)NC(=O)[C@H](CCCNC(=N)N)NC(=O)[C@H](CCC(N)=O)NC(=O)[C@@H](NC(=O)[C@H](C)NC(=O)[C@@H]1CSSC[C@H](NC(=O)[C@@H](N)CCCCNC(=O)CC[C@H](NC(=O)CC[C@H](NC(=O)CCCCCCCCCCCCCCCCCCC(=O)O)C(=O)O)C(=O)O)C(=O)N[C@@H](CC(N)=O)C(=O)N[C@@H]([C@@H](C)O)C(=O)N[C@@H](C)C(=O)N[C@@H]([C@@H](C)O)C(=O)N1)[C@@H](C)O)C(=O)N1CCC[C@H]1C(=O)N[C@@H](CO)C(=O)N[C@@H](CO)C(=O)N[C@H](C(=O)N[C@@H](CC(N)=O)C(=O)N[C@H](C(=O)NCC(=O)N1CCC[C@H]1C(=O)N[C@@H](CC(N)=O)C(=O)N[C@H](C(=O)N[C@@H](Cc1ccccc1)C(N)=O)[C@@H](C)O)C(C)C)[C@@H](C)O
notes: as for B1
B5: N^ε1-[(4S)-4-carboxy-4-[[(4S)-4-carboxy-4-(19-carboxynonadecanoylamino)butanoyl]amino]butanoyl]-[Glu14,Arg17,Pro21,Pro31,Pro34,Glu35]-h-amylin (peptide)
peptide: K([γGlu-γGlu-C20 diacid])CNTATCATQRLAEFLRHSSPNFGAILSSTPVGPETY-NH2
modifications: disulfide 2-7 (inferred)
notes: as for B1
B6: N^ε1-[(4S)-4-carboxy-4-[[(4S)-4-carboxy-4-(19-carboxynonadecanoylamino)butanoyl]amino]butanoyl]-[Glu14,Arg17,Pro21,Pro27,Pro34,Arg35]-h-amylin (peptide)
peptide: K([γGlu-γGlu-C20 diacid])CNTATCATQRLAEFLRHSSPNFGAIPSSTNVGPRTY-NH2
modifications: disulfide 2-7; N-terminus assumed
SMILES: CC[C@H](C)[C@H](NC(=O)[C@H](C)NC(=O)CNC(=O)[C@H](Cc1ccccc1)NC(=O)[C@H](CC(N)=O)NC(=O)[C@@H]1CCCN1C(=O)[C@H](CO)NC(=O)[C@H](CO)NC(=O)[C@H](Cc1c[nH]cn1)NC(=O)[C@H](CCCNC(=N)N)NC(=O)[C@H](CC(C)C)NC(=O)[C@H](Cc1ccccc1)NC(=O)[C@H](CCC(=O)O)NC(=O)[C@H](C)NC(=O)[C@H](CC(C)C)NC(=O)[C@H](CCCNC(=N)N)NC(=O)[C@H](CCC(N)=O)NC(=O)[C@@H](NC(=O)[C@H](C)NC(=O)[C@@H]1CSSC[C@H](NC(=O)[C@@H](N)CCCCNC(=O)CC[C@H](NC(=O)CC[C@H](NC(=O)CCCCCCCCCCCCCCCCCCC(=O)O)C(=O)O)C(=O)O)C(=O)N[C@@H](CC(N)=O)C(=O)N[C@@H]([C@@H](C)O)C(=O)N[C@@H](C)C(=O)N[C@@H]([C@@H](C)O)C(=O)N1)[C@@H](C)O)C(=O)N1CCC[C@H]1C(=O)N[C@@H](CO)C(=O)N[C@@H](CO)C(=O)N[C@H](C(=O)N[C@@H](CC(N)=O)C(=O)N[C@H](C(=O)NCC(=O)N1CCC[C@H]1C(=O)N[C@@H](CCCNC(=N)N)C(=O)N[C@H](C(=O)N[C@@H](Cc1ccc(O)cc1)C(N)=O)[C@@H](C)O)C(C)C)[C@@H](C)O
notes: modifications are with respect to human amylin; also called compound 110
B7: N^ε1-[(4S)-4-carboxy-4-[[(4S)-4-carboxy-4-(19-carboxynonadecanoylamino)butanoyl]amino]butanoyl]-[Glu14,Arg17,Pro21,Pro27,Pro34,His35]-h-amylin (peptide)
peptide: K([γGlu-γGlu-C20 diacid])CNTATCATQRLAEFLRHSSPNFGAIPSSTNVGPHTY-NH2
modifications: disulfide 2-7 (inferred)
notes: as for B1

The target of this assay is T1, human amylin receptor (Amylin 3(a) …). Description: SPA competition binding, displacement of 125I-rat amylin from membranes of BHK cells with human calcitonin receptor + RAMP-3 (Assay V). In outline: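 Cell membranes were prepared by homogenisation in Na-HEPES/EDTA buffer, pH 7.4, and stored at −80° C. They were then coupled to SPA beads at 35 ng/μL final and exposed to compounds in assay buffer containing CaCl2, MgCl₂, OA and Tween20. After 120 min at 25° C, plates were counted and IC₅₀ derived.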
On the technique in general: Loss of bound radioactivity is the signal in a displacement assay; it reports binding, not function.
One may read the IC50 as the point on the concentration scale where inhibition reaches its midpoint. As for B1, the IC50 is 0.525 nM.
Take B2: the IC50 stood at 0.076 nM.
On to B3, for which the IC50 came out at 1.19 nM.
For the molecule B4, the IC50 was determined as 0.152 nM.
Turning to B5, the IC50 was 0.069 nM.
Turning to B6, the IC50 worked out at 0.326 nM.
Next, B7: 0.377 nM.
